# Experimental data from patent US20070105771A1 (Y S THERAPEUTICS, published 2007).
# T1: human CD26-derived 13 mer peptide 101 (human)
# T1 peptide: YPKTVRVPYPKAG
# T2: human CD26-derived 13 mer peptide 130 (human)
# T2 peptide: ATQERISLQWLRR
# T3: human CD26-derived 13 mer peptide 132 (human)
# T3 peptide: RISLQWLRRIQNY
# T4: human CD26-derived 13 mer peptide 113 (human)
# T4 peptide: NTDSLSSVTNATS
# T5: human CD26-derived 13 mer peptide 38 (human)
# T5 peptide: KQWRHSYTASYDI
# T6: human CD26-derived 13 mer peptide 9 (human)
# T6 peptide: SDHEYLYKQENNI
# T7: human CD26-derived 13 mer peptide 104 (human)
# T7 peptide: VPYPKAGAVNPTV
# T8: human CD26-derived 13 mer peptide 61 (human)
# T8 peptide: WNNDIYVKIEPNL
# T9: human CD26-derived 13 mer peptide 81 (human)
# T9 peptide: FSAYSALWWSPNG
# T10: human CD26-derived 13 mer peptide 37 (human)
# T10 peptide: YVKQWRHSYTASY
# T11: human CD26-derived 13 mer peptide 33 (human)
# T11 peptide: QFILLEYNYVKQW
# T12: human CD26-derived 13 mer peptide 115 (human)
# T12 peptide: LSSVTNATSIQIT
# T13: human CD26-derived 13 mer peptide 66 (human)
# T13 peptide: PNLPSYRITWTGK
# T14: human CD26-derived 13 mer peptide 8 (human)
# T14 peptide: WISDHEYLYKQEN
# T15: human CD26-derived 13 mer peptide 93 (human)
# T15 peptide: EVPLIEYSFYSDE
# T16: human CD26-derived 13 mer peptide 111 (human)
# T16 peptide: FFVVNTDSLSSVT
# T17: human CD26-derived 13 mer peptide 51 (human)
# T17 peptide: IPNNTQWVTWSPV
# T18: human CD26-derived 13 mer peptide 15 (human)
# T18 peptide: ILVFNAEYGNSSV
# T19: human CD26-derived 13 mer peptide 46 (human)
# T19 construct: also called NKRQL1TEERIPN
# T19 peptide: NKRQLITEERIPN
# T20: human CD26-derived 13 mer peptide 96 (human)
# T20 peptide: YSFYSDESLQYPK
# T21: human CD26-derived 13 mer peptide 12 (human)
# T21 peptide: YKQENNILVFNAE
# T22: human CD26-derived 13 mer peptide 56 (human)
# T22 peptide: SPVGHKLAYVWNN
# T23: human CD26-derived 13 mer peptide 58 (human)
# T23 peptide: HKLAYVWNNDIYV
# T24: human CD26-derived 13 mer peptide 110 (human)
# T24 peptide: VKFFVVNTDSLSS
# T25: human CD26-derived 13 mer peptide 92 (human)
# T25 peptide: DTEVPLIEYSFYS
# T26: human CD26-derived 13 mer peptide 84 (human)
# T26 peptide: LWWSPNGTFLAYA
# T27: human CD26-derived 13 mer peptide 14 (human)
# T27 peptide: NNILVFNAEYGNS
# T28: human CD26-derived 13 mer peptide 89 (human)
# T28 peptide: AYAQFNDTEVPLI
# T29: human CD26-derived 13 mer peptide 126 (human)
# T29 peptide: HYLCDVTWATQER
# T30: human CD26-derived 13 mer peptide 72 (human)
# T30 peptide: KEDIIYNGITDWV
# T31: human CD26-derived 13 mer peptide 102 (human)
# T31 peptide: KTVRVPYPKAGAV
# T32: human CD26-derived 13 mer peptide 123 (human)
# T32 peptide: SMLIGDHYLCDVT
# T33: human CD26-derived 13 mer peptide 28 (human)
# T33 peptide: INDYSISPDGQFI
# T34: human CD26-derived 13 mer peptide 11 (human)
# T34 peptide: YLYKQENNILVFN
# T35: human CD26-derived 13 mer peptide 64 (human)
# T35 peptide: VKIEPNLPSYRIT
# T36: human CD26-derived 13 mer peptide 119 (human)
# T36 peptide: SIQITAPASMLIG
# T37: human CD26-derived 13 mer peptide 117 (human)
# T37 peptide: TNATSIQITAPAS
# T38: human CD26-derived 13 mer peptide 40 (human)
# T38 peptide: HSYTASYDIYDLN
# T39: human CD26-derived 13 mer peptide 10 (human)
# T39 peptide: HEYLYKQENNILV
# T40: human CD26-derived 13 mer peptide 50 (human)
# T40 peptide: ERIPNNTQWVTWS
# T41: human CD26-derived 13 mer peptide 133 (human)
# T41 peptide: SLQWLRRIQNYSV
# T42: human CD26-derived 13 mer peptide 59 (human)
# T42 peptide: LAYVWNNDIYVKI
# B1: rhuMAb 411 (antibody, human IgG1, kappa, V domains shown)
# VH: EVQLVESGAGVKQPGGTLRLTCTASGFSLTTYGVHWVRQAPGKGLEWVGVIWGDGRTDYDAAFMSRVTISKDTSKSTVYLQMNSLRAEDTAVYYCMRNRHDWFDYWGQGTTVTVSS
# VL: DILLTQSPSSLSATPGERATITCRASQGIRNNLNWYQQKPGQAPRLLIYYSSNLQSGVPSRFSGSGSGTDFTLTISRLQPEDVAAYYCQQSIKLPFTFGSGTKVEIKR
# notes: also called X411
# Legend:
# Experiment in all cases: peptide microarray
# [1] = molecular target: T1, human CD26-derived 13 mer peptide 101
# Method: (§1) The overnight incubation was followed by three washings with each of PBS buffer pH 7.5 and water. The microarrays were then scanned using ArrayWorx-Microarray Scanner.
# (§2) The SPOT recognition software package ArrayPro was used for data analysis. The mean of signal intensities from 3 identical subarrays on each microarray image was used for data evaluation.
# [2] = molecular target: T2, human CD26-derived 13 mer peptide 130
# Method: as §1, §2
# [3] = molecular target: T3, human CD26-derived 13 mer peptide 132
# Method: as §1, §2
# [4] = molecular target: T4, human CD26-derived 13 mer peptide 113
# Method: as §1, §2
# [5] = molecular target: T5, human CD26-derived 13 mer peptide 38
# Method: as §1, §2
# [6] = molecular target: T6, human CD26-derived 13 mer peptide 9
# Method: as §1, §2
# [7] = molecular target: T7, human CD26-derived 13 mer peptide 104
# Method: as §1, §2
# [8] = molecular target: T8, human CD26-derived 13 mer peptide 61
# Method: as §1, §2
# [9] = molecular target: T9, human CD26-derived 13 mer peptide 81
# Method: as §1, §2
# [10] = molecular target: T10, human CD26-derived 13 mer peptide 37
# Method: as §1, §2
# [11] = molecular target: T11, human CD26-derived 13 mer peptide 33
# Method: as §1, §2
# [12] = molecular target: T12, human CD26-derived 13 mer peptide 115
# Method: as §1, §2
# [13] = molecular target: T13, human CD26-derived 13 mer peptide 66
# Method: as §1, §2
# [14] = molecular target: T14, human CD26-derived 13 mer peptide 8
# Method: as §1, §2
# [15] = molecular target: T15, human CD26-derived 13 mer peptide 93
# Method: as §1, §2
# [16] = molecular target: T16, human CD26-derived 13 mer peptide 111
# Method: as §1, §2
# [17] = molecular target: T17, human CD26-derived 13 mer peptide 51
# Method: as §1, §2
# [18] = molecular target: T18, human CD26-derived 13 mer peptide 15
# Method: as §1, §2
# [19] = molecular target: T19, human CD26-derived 13 mer peptide 46
# Method: as §1, §2
# [20] = molecular target: T20, human CD26-derived 13 mer peptide 96
# Method: as §1, §2
# [21] = molecular target: T21, human CD26-derived 13 mer peptide 12
# Method: as §1, §2
# [22] = molecular target: T22, human CD26-derived 13 mer peptide 56
# Method: as §1, §2
# [23] = molecular target: T23, human CD26-derived 13 mer peptide 58
# Method: as §1, §2
# [24] = molecular target: T24, human CD26-derived 13 mer peptide 110
# Method: as §1, §2
# [25] = molecular target: T25, human CD26-derived 13 mer peptide 92
# Method: as §1, §2
# [26] = molecular target: T26, human CD26-derived 13 mer peptide 84
# Method: as §1, §2
# [27] = molecular target: T27, human CD26-derived 13 mer peptide 14
# Method: as §1, §2
# [28] = molecular target: T28, human CD26-derived 13 mer peptide 89
# Method: as §1, §2
# [29] = molecular target: T29, human CD26-derived 13 mer peptide 126
# Method: as §1, §2
# [30] = molecular target: T30, human CD26-derived 13 mer peptide 72
# Method: as §1, §2
# [31] = molecular target: T31, human CD26-derived 13 mer peptide 102
# Method: as §1, §2
# [32] = molecular target: T32, human CD26-derived 13 mer peptide 123
# Method: as §1, §2
# [33] = molecular target: T33, human CD26-derived 13 mer peptide 28
# Method: as §1, §2
# [34] = molecular target: T34, human CD26-derived 13 mer peptide 11
# Method: as §1, §2
# [35] = molecular target: T35, human CD26-derived 13 mer peptide 64
# Method: as §1, §2
# [36] = molecular target: T36, human CD26-derived 13 mer peptide 119
# Method: as §1, §2
# [37] = molecular target: T37, human CD26-derived 13 mer peptide 117
# Method: as §1, §2
# [38] = molecular target: T38, human CD26-derived 13 mer peptide 40
# Method: as §1, §2
# [39] = molecular target: T39, human CD26-derived 13 mer peptide 10
# Method: as §1, §2
# [40] = molecular target: T40, human CD26-derived 13 mer peptide 50
# Method: as §1, §2
# [41] = molecular target: T41, human CD26-derived 13 mer peptide 133
# Method: as §1, §2
# [42] = molecular target: T42, human CD26-derived 13 mer peptide 59
# Method: as §1, §2
binder,measurement,setting,value
B1,Mean Signal Value,[1],0.00481
same,Mean Signal Value,[2],4.3
same,Mean Signal Value,[3],113
same,Mean Signal Value,[4],0.0288
same,Mean Signal Value,[5],4.77
same,Mean Signal Value,[6],0.0673
same,Mean Signal Value,[7],0.00481
same,Mean Signal Value,[8],0.0385
same,Mean Signal Value,[9],35.4
same,Mean Signal Value,[10],98.2
same,Mean Signal Value,[11],21.8
same,Mean Signal Value,[12],0.0673
same,Mean Signal Value,[13],0.111
same,Mean Signal Value,[14],0.736
same,Mean Signal Value,[15],0.269
same,Mean Signal Value,[16],0
same,Mean Signal Value,[17],0.856
same,Mean Signal Value,[18],0
same,Mean Signal Value,[19],0
same,Mean Signal Value,[20],0.0144
same,Mean Signal Value,[21],0
same,Mean Signal Value,[22],11.7
same,Mean Signal Value,[23],33.8
same,Mean Signal Value,[24],0.024
same,Mean Signal Value,[25],11.9
same,Mean Signal Value,[26],17.2
same,Mean Signal Value,[27],0.00962
same,Mean Signal Value,[28],0
same,Mean Signal Value,[29],0.0337
same,Mean Signal Value,[30],10.1
same,Mean Signal Value,[31],0.0192
same,Mean Signal Value,[32],0.438
same,Mean Signal Value,[33],0.221
same,Mean Signal Value,[34],5.78
same,Mean Signal Value,[35],0.438
same,Mean Signal Value,[36],0.024
same,Mean Signal Value,[37],0.00962
same,Mean Signal Value,[38],32.2
same,Mean Signal Value,[39],0.0192
same,Mean Signal Value,[40],34.6
same,Mean Signal Value,[41],6.51
same,Mean Signal Value,[42],0.683
